For 52 substances, collision cross section results are on record in the supplement of paper PMC10598134.

± gives the standard deviation.

The nature of this series: collision cross section of modified peptide (TIMS, N2, iRT-aligned); higher = larger / more extended gas-phase ion. Summed up:
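Collision cross section values rest on the Mason-Schamp equation applied to calibrated, run-aligned mobility data from synthetic peptides. Mobility (1/K0) was calibrated with three reference ions and aligned per run to the median iRT peptide deviation, and 1–3 technical replicates of the most abundant feature per charge state were averaged. Data came from a timsTOF Pro/HT in dda-PASEF mode (nitrogen, ~2.4 mbar) after a 120-min nanoflow C18 gradient at 60 °C.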

Setting [1] is: charge state: 2, modification: hydroxyisobutyryl.
[2] abbreviates: charge state: 3, modification: hydroxyisobutyryl.
Setting [3] is: charge state: 2, modification: Citrullination (R).
Setting [4] is: charge state: 3, modification: Citrullination (R).
Where [5] appears, read: charge state: 2, modification: Methyl (R).
The mark [6] stands for this setting: charge state: 3, modification: Methyl (R).
The mark [7] stands for this setting: charge state: 2, modification: Nitro (Y).
The mark [8] stands for this setting: charge state: 2, modification: Acetyl (K).
The mark [9] stands for this setting: charge state: 3, modification: Acetyl (K).
Setting [10] is: charge state: 2, modification: Biotin.
The mark [11] stands for this setting: charge state: 3, modification: Biotin.
The mark [12] stands for this setting: charge state: 2, modification: Butyryl.
Setting [13] is: charge state: 3, modification: Butyryl.
The mark [14] stands for this setting: charge state: 2, modification: Crotonyl.
[15] abbreviates: charge state: 3, modification: Crotonyl.
Setting [16] is: charge state: 3, modification: Dimethyl (K).
[17] abbreviates: charge state: 2, modification: Formyl.
The mark [18] stands for this setting: charge state: 3, modification: Formyl.
The mark [19] stands for this setting: charge state: 2, modification: Glutarylation.
The mark [20] stands for this setting: charge state: 3, modification: Glutarylation.
The mark [21] stands for this setting: charge state: 2, modification: GlyGly (K).
[22] abbreviates: charge state: 3, modification: GlyGly (K).
Setting [23] is: charge state: 2, modification: Malonyl.
[24] abbreviates: charge state: 3, modification: Malonyl.
Where [25] appears, read: charge state: 2, modification: Methyl (K).
Where [26] appears, read: charge state: 3, modification: Methyl (K).
Setting [27] is: charge state: 2, modification: Succinyl.
[28] abbreviates: charge state: 3, modification: Succinyl.
Where [29] appears, read: charge state: 3, modification: Trimethyl (K).
The mark [30] stands for this setting: charge state: 2, modification: Dimethyl (K).
The mark [31] stands for this setting: charge state: 2, modification: Phospho (Y).

On to “VQGGALEDSQLVAGVAFKK [_VQGGALEDSQLVAGVAFK(hydroxyisobutyryl)K_]”, for which the collision cross section reads like this: under setting [1], 481.48 Å²; under setting [2], 565.17 ± 3.4 Å².

Take VRFHNPR [_VR(Citrullination (R))FHNPR_]: the collision cross section runs as follows: under setting [3], 325.95 ± 14 Å²; under setting [4], 406.17 Å².

With VRFHNPR [_VR(Methyl (R))FHNPR_], the collision cross section by setting is: under setting [5], 340.13 ± 1.8 Å²; under setting [6], 406.89 ± 0.36 Å².

The substance “VRLQTTLR [_VR(Citrullination (R))LQTTLR_]” registered a collision cross section under setting [3] of 344.05 ± 1.2 Å².

VRLQTTLR [_VR(Methyl (R))LQTTLR_]: the collision cross section amounted to 349.69 ± 0.95 Å² under setting [5] and 439.94 ± 4.3 Å² under setting [6].

As for “VSFLSALEEYTK [_VSFLSALEEY(Nitro (Y))TK_]”, the collision cross section under setting [7] was 400.94 ± 0.73 Å².

On to “VSPASSVDSNIPSSQGYKK [_VSPASSVDSNIPSSQGYK(Acetyl (K))K_]”, for which the collision cross section reads like this: under setting [8], 458.38 ± 2.6 Å²; under setting [9], 553.13 ± 0.49 Å².

As for “VSPASSVDSNIPSSQGYKK [_VSPASSVDSNIPSSQGYK(Biotin)K_]”, the collision cross section was found to be 474.43 Å² under setting [10] and 539.94 ± 1.6 Å² under setting [11].

For “VSPASSVDSNIPSSQGYKK [_VSPASSVDSNIPSSQGYK(Butyryl)K_]”, the collision cross section reads like this: under setting [12], 463.23 ± 2.7 Å²; under setting [13], 559.88 ± 1.1 Å².

As to “VSPASSVDSNIPSSQGYKK [_VSPASSVDSNIPSSQGYK(Crotonyl)K_]”, the collision cross section reads like this: under setting [14], 464.78 ± 0.82 Å²; under setting [15], 560.75 ± 1.6 Å².

“VSPASSVDSNIPSSQGYKK [_VSPASSVDSNIPSSQGYK(Dimethyl (K))K_]”: the collision cross section under setting [16] is 536.37 ± 0.42 Å².

Turning to “VSPASSVDSNIPSSQGYKK [_VSPASSVDSNIPSSQGYK(Formyl)K_]”, the collision cross section runs as follows: under setting [17], 457.96 ± 0.14 Å²; under setting [18], 550.3 ± 3 Å².

Regarding “VSPASSVDSNIPSSQGYKK [_VSPASSVDSNIPSSQGYK(Gluratylation)K_]”, the collision cross section is on record as 466.49 ± 3 Å² under setting [19] and 552.93 ± 0.14 Å² under setting [20].

For the substance “VSPASSVDSNIPSSQGYKK [_VSPASSVDSNIPSSQGYK(GlyGly (K))K_]”, the collision cross section reads like this: under setting [21], 469.54 ± 1.4 Å²; under setting [22], 521.06 ± 4.6 Å².

Consider “VSPASSVDSNIPSSQGYKK [_VSPASSVDSNIPSSQGYK(Malonyl)K_]”, for which the collision cross section runs as follows: under setting [23], 465.75 ± 0.51 Å²; under setting [24], 526.18 ± 21 Å².

Turning to “VSPASSVDSNIPSSQGYKK [_VSPASSVDSNIPSSQGYK(Methyl (K))K_]”, the collision cross section is recorded as 486.85 ± 1.2 Å² under setting [25] and 544.11 ± 0.42 Å² under setting [26].

Take “VSPASSVDSNIPSSQGYKK [_VSPASSVDSNIPSSQGYK(Propionyl)K_]”: the collision cross section (charge state: 3, modification: Propionyl) is reported as 557.31 Å².

Take “VSPASSVDSNIPSSQGYKK [_VSPASSVDSNIPSSQGYK(Succinyl)K_]”: the collision cross section stood at 467.79 ± 1.1 Å² under setting [27] and 548.84 ± 1.1 Å² under setting [28].

In turn, “VSPASSVDSNIPSSQGYKK [_VSPASSVDSNIPSSQGYK(Trimethyl (K))K_]” gave a collision cross section under setting [29] of 548.09 ± 0.9 Å².

With “VSPASSVDSNIPSSQGYKK [_VSPASSVDSNIPSSQGYK(hydroxyisobutyryl)K_]”, the collision cross section amounted to 468.85 ± 0.27 Å² under setting [1] and 562.43 ± 0.42 Å² under setting [2].

Regarding VTGGIFSVTK [_VTGGIFS(HexNAc (ST))VTK_], the collision cross section (charge state: 2, modification: HexNAc (ST)) was determined as 361.54 ± 1.2 Å².

For the substance “VTLEVGKVIQQGR [_VTLEVGK(Acetyl (K))VIQQGR_]”, the collision cross section was determined as 405.94 ± 0.47 Å² under setting [8] and 479.97 ± 2.5 Å² under setting [9].

For the substance VTLEVGKVIQQGR [_VTLEVGK(Biotin)VIQQGR_], the collision cross section is, setting by setting: under setting [10], 422.26 Å²; under setting [11], 501.27 Å².

The substance “VTLEVGKVIQQGR [_VTLEVGK(Butyryl)VIQQGR_]” registered a collision cross section under setting [12] of 412.79 ± 0.23 Å² and a collision cross section under setting [13] of 483.04 ± 1.9 Å².

“VTLEVGKVIQQGR [_VTLEVGK(Crotonyl)VIQQGR_]”: the collision cross section under setting [14] was found to be 412.55 ± 0.81 Å² and the collision cross section under setting [15] is 473.48 ± 1.6 Å².

With “VTLEVGKVIQQGR [_VTLEVGK(Dimethyl (K))VIQQGR_]”, the collision cross section by setting is: under setting [30], 422.85 ± 1.4 Å²; under setting [16], 464.75 ± 1.6 Å².

On to VTLEVGKVIQQGR [_VTLEVGK(Formyl)VIQQGR_], for which the collision cross section was found to be 402.06 ± 2.7 Å² under setting [17] and 475.94 ± 2.1 Å² under setting [18].

“VTLEVGKVIQQGR [_VTLEVGK(Gluratylation)VIQQGR_]”: the collision cross section reads like this: under setting [19], 418.56 ± 0.59 Å²; under setting [20], 485.84 ± 1 Å².

As for “VTLEVGKVIQQGR [_VTLEVGK(GlyGly (K))VIQQGR_]”, the collision cross section came to 431.32 ± 0.96 Å² under setting [21] and 486.06 ± 1.6 Å² under setting [22].

Take “VTLEVGKVIQQGR [_VTLEVGK(Malonyl)VIQQGR_]”: the collision cross section is on record as 413.16 ± 1.2 Å² under setting [23] and 480.87 ± 1.8 Å² under setting [24].

As for “VTLEVGKVIQQGR [_VTLEVGK(Methyl (K))VIQQGR_]”, the collision cross section runs as follows: under setting [25], 428.74 ± 1.9 Å²; under setting [26], 464.87 ± 3.7 Å².

On to “VTLEVGKVIQQGR [_VTLEVGK(Propionyl)VIQQGR_]”, for which, where the note is “charge state: 2, modification: Propionyl”, the collision cross section turned out to be 410.06 ± 0.37 Å².

“VTLEVGKVIQQGR [_VTLEVGK(Succinyl)VIQQGR_]”: the collision cross section under setting [27] turned out to be 412.33 ± 0.54 Å² and the collision cross section under setting [28] was found to be 481.23 ± 2 Å².

For “VTLEVGKVIQQGR [_VTLEVGK(Trimethyl (K))VIQQGR_]”, the collision cross section runs as follows: (charge state: 2, modification: Trimethyl (K)) 428.78 ± 1 Å²; under setting [29], 471.08 ± 1.8 Å².

For “VTLEVGKVIQQGR [_VTLEVGK(hydroxyisobutyryl)VIQQGR_]”, the collision cross section is, setting by setting: under setting [1], 414.48 ± 0.55 Å²; under setting [2], 486.66 ± 1.9 Å².

For “VTPHPSPRGSPLPTPK [_VTPHPSPR(Citrullination (R))GSPLPTPK_]”, the collision cross section by setting is: under setting [3], 409.96 ± 0.55 Å²; under setting [4], 504.78 ± 11 Å².

With “VTPHPSPRGSPLPTPK [_VTPHPSPR(Methyl (R))GSPLPTPK_]”, the collision cross section under setting [6] was found to be 512.12 ± 9.6 Å².

Consider “VTRYPILGIPQAHR [_VTR(Citrullination (R))YPILGIPQAHR_]”, for which the collision cross section under setting [4] turned out to be 520.51 ± 0.78 Å².

Consider “VTRYPILGIPQAHR [_VTR(Methyl (R))YPILGIPQAHR_]”, for which the collision cross section under setting [6] was 524.3 ± 0.78 Å².

As for VVDLLAPYAK [_VVDLLAPY(Nitro (Y))AK_], the collision cross section under setting [7] turned out to be 371.07 ± 0.55 Å².

For the substance VVDLLAPYAK [_VVDLLAPY(Phospho (Y))AK_], under setting [31], the collision cross section is 379.49 ± 0.074 Å².

Take VVPGYGHAVLR [_VVPGY(Nitro (Y))GHAVLR_]: the collision cross section under setting [7] is reported as 383.51 ± 0.17 Å² and the collision cross section (charge state: 3, modification: Nitro (Y)) was 449.51 ± 1.1 Å².

On to “VVPGYGHAVLR [_VVPGY(Phospho (Y))GHAVLR_]”, for which the collision cross section reads like this: under setting [31], 386.55 ± 0.062 Å²; (charge state: 3, modification: Phospho (Y)) 451.71 Å².

In the case of “VYIASSSGSTAIKK [_VYIASSSGSTAIK(Acetyl (K))K_]”, the collision cross section under setting [8] came to 414.5 ± 2.5 Å² and the collision cross section under setting [9] is 503.2 ± 1.2 Å².

As for “VYIASSSGSTAIKK [_VYIASSSGSTAIK(Biotin)K_]”, the collision cross section under setting [10] was found to be 429.83 Å².

For the substance “VYIASSSGSTAIKK [_VYIASSSGSTAIK(Butyryl)K_]”, the collision cross section under setting [12] is 422.89 ± 0.77 Å² and the collision cross section under setting [13] amounted to 508.32 ± 2.9 Å².

The substance “VYIASSSGSTAIKK [_VYIASSSGSTAIK(Crotonyl)K_]” registered a collision cross section under setting [14] of 419.06 ± 0.81 Å² and a collision cross section under setting [15] of 505.65 ± 0.46 Å².

Turning to “VYIASSSGSTAIKK [_VYIASSSGSTAIK(Dimethyl (K))K_]”, the collision cross section is, setting by setting: under setting [30], 434.74 ± 1.3 Å²; under setting [16], 497.25 ± 0.75 Å².

For the substance “VYIASSSGSTAIKK [_VYIASSSGSTAIK(Formyl)K_]”, the collision cross section reads like this: under setting [17], 408.95 ± 1.8 Å²; under setting [18], 497.96 ± 1.5 Å².

Consider “VYIASSSGSTAIKK [_VYIASSSGSTAIK(Gluratylation)K_]”, for which the collision cross section was 420.03 ± 1.5 Å² under setting [19] and 512.2 ± 1 Å² under setting [20].

For “VYIASSSGSTAIKK [_VYIASSSGSTAIK(GlyGly (K))K_]”, the collision cross section by setting is: under setting [21], 437.45 ± 1.4 Å²; under setting [22], 498.73 ± 3.9 Å².

Substance “VYIASSSGSTAIKK [_VYIASSSGSTAIK(Malonyl)K_]” registered a collision cross section under setting [23] of 409.24 ± 0.039 Å².
